Here are results for 6 molecules from patent US20260167721A1 (ABLEXIS, published 2026).

Assay [1] has as its target T1, human CD3 (TCR/CD3 complex) on the cell surface (human, UniProt P07766 23-207; P09693 23-182; P04234 22-171; P20963 22-164).
T1 construct: whole, on cells; also called CD3 on Pan-T cells; CD3 on Jurkat WT cells
Put plainly: flow cytometry, Pan-T cells, 1 ug/mL. (In general: A flow cytometer gives signals particle by particle.)

Assay [2] addresses T1, human CD3 (TCR/CD3 complex) on the cell …. Put plainly: flow cytometry, Pan-T cells, 10 ug/mL.
Assay [3] has the same target. Put plainly: flow cytometry, Jurkat WT cells, 1 ug/mL.
Assay [4] has the same target. Put plainly: flow cytometry, Jurkat WT cells, 10 ug/mL.
For assay [5] the target is unchanged. As to the kind of experiment: flow cytometry, gMFI Jurkat WT over Jurkat TCRb KO, 1 ug/mL.
The target is the same in assay [6]. As to the kind of experiment: flow cytometry, gMFI Jurkat WT over Jurkat TCRb KO, 10 ug/mL.
In assay [7] the target is T2, recombinant CD3 proteins (UniProt P07766 23-126).
T2 construct: elsewhere it uses human CD3 E/D and E/G heterodimers
As to the kind of experiment: Octet BLI, recombinant CD3; Full R^2 0.000*. (BLI is a label-free optical method that tracks binding on a fibre tip over time.)

The target in assay [8] is T2, recombinant CD3 proteins. Put plainly: Octet BLI, recombinant CD3; Full R^2 0.997.

In general, Kd refers to the free concentration of one partner at which half of the binding sites on the other are occupied at equilibrium, for simple one-to-one binding. The koff is a measure of how fast the partners let go of each other. As a reminder, the kon is the second-order rate constant of association.

T1 sequence (P07766 23-207, chain 1 of 4): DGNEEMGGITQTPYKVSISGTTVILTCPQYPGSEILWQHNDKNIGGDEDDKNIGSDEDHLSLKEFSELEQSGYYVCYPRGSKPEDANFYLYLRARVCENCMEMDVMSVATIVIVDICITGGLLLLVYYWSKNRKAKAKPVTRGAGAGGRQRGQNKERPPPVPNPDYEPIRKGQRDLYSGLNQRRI
T1 sequence (P09693 23-182, chain 2 of 4): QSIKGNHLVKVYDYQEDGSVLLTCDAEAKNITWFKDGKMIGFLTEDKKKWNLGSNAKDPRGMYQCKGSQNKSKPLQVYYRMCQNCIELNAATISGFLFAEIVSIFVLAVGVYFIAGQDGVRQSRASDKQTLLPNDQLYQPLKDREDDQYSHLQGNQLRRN
T1 sequence (P04234 22-171, chain 3 of 4): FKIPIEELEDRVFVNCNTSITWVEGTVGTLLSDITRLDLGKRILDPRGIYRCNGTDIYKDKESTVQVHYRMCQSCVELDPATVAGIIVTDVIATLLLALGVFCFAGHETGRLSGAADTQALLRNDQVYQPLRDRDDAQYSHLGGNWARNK
T1 sequence (P20963 22-164, chain 4 of 4): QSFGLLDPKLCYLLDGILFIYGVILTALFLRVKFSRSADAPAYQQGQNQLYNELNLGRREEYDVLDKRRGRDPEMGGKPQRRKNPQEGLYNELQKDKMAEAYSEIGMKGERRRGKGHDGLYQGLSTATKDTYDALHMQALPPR
T2 sequence (P07766 23-126): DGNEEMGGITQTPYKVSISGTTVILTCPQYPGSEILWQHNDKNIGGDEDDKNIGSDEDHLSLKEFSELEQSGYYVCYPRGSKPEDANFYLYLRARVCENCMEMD

B1: Gemtuzumab (antibody, V domains shown)
VH: EVQLVQSGAEVKKPGSSVKVSCKASGYTITDSNIHWVRQAPGQSLEWIGYIYPYNGGTDYNQKFKNRATLTVDNPTNTAYMELSSLRSEDTAFYYCVNGNPWLAYWGQGTLVTVSS
VL: DIQLTQSPSTLSASVGDRVTITCRASESLDNYGIRFLTWFQQKPGKAPKLLMYAASNQGSGVPSRFSGSGSGTEFTLTISSLQPDDFATYYCQQTKEVPWSFGQGTKVEVKR
notes: also called anti-CD33 control
As for B1, the entries for the “% Positive” value in assay [1] and in assay [2] were 1.2% and 0.7%, respectively. The gMFI in assay [1] came to 1770 gMFI; in assay [2], 1680 gMFI; in assay [3], 1650 gMFI; in assay [4], 1690 gMFI. The “Jurkat WT/KO (Fold)” value in assay [5] and in assay [6] was 0.9 fold in each case.

B2: CD3 × CD33-BspAb44 (bispecific antibody)
chain 1: EVQLVESGGGLVKPGGSLRLSCAASGFTFSRYSMNWVRQAPGKCLKWVSSISSSGSYKYYADSVKGRFTISRDNAKNSLYLQMNSLRAEDTAVYYCAREPPTLGMDYWGQGTLVTVSSGGGGSGGGGSGGGGSGGGGSNFMLTQPHSVSESPGKTVTISCTRSSGSIASNYVQWYQQRPGSSPTTVIYEDNQRPSGVPDRFSGSIDSSSNSASLTISGLKTEDEADYYCQSFDNSNRVFGCGTKLTVLDKTHTCPPCPAPEFEGGPSVFLFPPKPKDTLMISRTPEVTCVVVDVSHEDPEVKFNWYVDGVEVHNAKTKPREEQYNSTYRVVSVLTVLHQDWLNGKEYKCKVSNKALPASIEKTISKAKGQPREPQVYTLPPCREEMTKNQVSLWCLVKGFYPSDIAVEWESNGQPENNYKTTPPVLDSDGSFFLYSKLTVDKSRWQQGNVFSCSVMHEALHNHYTQKSLSLSPGK
chain 2: EVQLVQSGAEVKKPGSSVKVSCKASGYTITDSNIHWVRQAPGQSLEWIGYIYPYNGGTDYNQKFKNRATLTVDNPTNTAYMELSSLRSEDTAFYYCVNGNPWLAYWGQGTLVTVSSASTKGPSVFPLAPSSKSTSGGTAALGCLVKDYFPEPVTVSWNSGALTSGVHTFPAVLQSSGLYSLSSVVTVPSSSLGTQTYICNVNHKPSNTKVDKRVEPKSCDKTHTCPPCPAPEFEGGPSVFLFPPKPKDTLMISRTPEVTCVVVDVSHEDPEVKFNWYVDGVEVHNAKTKPREEQYNSTYRVVSVLTVLHQDWLNGKEYKCKVSNKALPASIEKTISKAKGQPREPQVCTLPPSREEMTKNQVSLSCAVKGFYPSDIAVEWESNGQPENNYKTTPPVLDSDGSFFLVSKLTVDKSRWQQGNVFSCSVMHEALHNRFTQKSLSLSPGK
chain 3: DIQLTQSPSTLSASVGDRVTITCRASESLDNYGIRFLTWFQQKPGKAPKLLMYAASNQGSGVPSRFSGSGSGTEFTLTISSLQPDDFATYYCQQTKEVPWSFGQGTKVEVKRTVAAPSVFIFPPSDEQLKSGTASVVCLLNNFYPREAKVQWKVDNALQSGNSQESVTEQDSKDSTYSLSSTLTLSKADYEKHKVYACEVTHQGLSSPVTKSFNRGEC
With B2, the “% Positive” value in assay [1] and in assay [2] was 99.5% throughout. For the same molecule, the gMFI in assay [1] is 475000 gMFI; in assay [2], 508000 gMFI; in assay [3], 57500 gMFI; in assay [4], 54200 gMFI. Further, the “Jurkat WT/KO (Fold)” value came out at 13.1 fold in assay [5] and 12.9 fold in assay [6].

B3: CD3 × CD33-BspAb48 (bispecific antibody)
chain 1: QVTLKESGPGILQPSQTLSLTCSFSGFSLSTFGMGVGWIRQPSGKCLEWLAHIWWDDDKYYNPALKSRLTISKDTSKNQVFLKIANVDTADTATYYCARLGYYPYWFFDVWGTGTTVTVSSGGGGSGGGGSGGGGSGGGGSNFMLTQPHSVSESPGKTVTIACTRSSGSIASNYVQWYQQRPGSSPTTVIYEDNQRPSGVPDRFSGSIDSSSNSASLTISGLKTEDEADYYCQSYDSSNQVFGCGTKLTVLDKTHTCPPCPAPEFEGGPSVFLFPPKPKDTLMISRTPEVTCVVVDVSHEDPEVKFNWYVDGVEVHNAKTKPREEQYNSTYRVVSVLTVLHQDWLNGKEYKCKVSNKALPASIEKTISKAKGQPREPQVYTLPPCREEMTKNQVSLWCLVKGFYPSDIAVEWESNGQPENNYKTTPPVLDSDGSFFLYSKLTVDKSRWQQGNVFSCSVMHEALHNHYTQKSLSLSPGK
chain 2: B2 chain 2
chain 3: B2 chain 3
On to B3, for which the entries for the “% Positive” value in assay [1] and in assay [2] were 3.4% and 82.2%, respectively. Besides, the gMFI in assay [1] amounted to 2870 gMFI; in assay [2] it was 12200 gMFI; in assay [3], 2260 gMFI; in assay [4], 5170 gMFI. The “Jurkat WT/KO (Fold)” value in assay [5] stood at 1.1 fold; in assay [6] it was 2.5 fold.

B4: CD3 × CD33-BspAb124 (bispecific antibody)
chain 1: not shown
chain 2: B2 chain 2
chain 3: B2 chain 3
Consider B4, for which, in assay [7], the Kd was < 0.001 nM, the koff is < 1e-07 s⁻¹ and the on-rate (kon) came out at 12500 M⁻¹ s⁻¹.

B5: CD3 × CD33-BspAb116 (bispecific antibody)
chain 1: NFMLTQPHSVSESPGKTVTISCTRSSGSIASNYVQWYQQRPGSSPTTVIYEDNQRPSGVPDRFSGSIDSSSNSASLTISGLKTEDEAYYYCQSFDSSNRVFGCGTKLTVLGGGGSGGGGSGGGGSGGGGSQVQLQESGPGLVKPSQTLSLTCTVSGGSISSGGYYWSWIRQHPGKCLEWIGYIYYSGSTYYNPSLKSRVTISVDTSKDQFSLKLSSVTAADTAVYYCARERKTSLPFDIWGQGTMVTVSSDKTHTCPPCPAPEFEGGPSVFLFPPKPKDTLMISRTPEVTCVVVDVSHEDPEVKFNWYVDGVEVHNAKTKPREEQYNSTYRVVSVLTVLHQDWLNGKEYKCKVSNKALPASIEKTISKAKGQPREPQVYTLPPCREEMTKNQVSLWCLVKGFYPSDIAVEWESNGQPENNYKTTPPVLDSDGSFFLYSKLTVDKSRWQQGNVFSCSVMHEALHNHYTQKSLSLSPGK
chain 2: B2 chain 2
chain 3: B2 chain 3
In the case of B5, in assay [8], the Kd turned out to be 163 nM, the koff amounted to 0.0168 s⁻¹ and the kon is 103000 M⁻¹ s⁻¹.

B6: CD3 × CD33-BspAb79 (bispecific antibody)
chain 1: QVQLQESGPGLVKPSETLSLTCTVSGGSISSYYWSWIRQPAGKCLEWIGRIYASGSTYYNPSLKSRVTMSVDTSKNQFSLKLSSVTAADTAVYYCAREKRSRLYFDYWGQGTLVTVSSGGGGSGGGGSGGGGSGGGGSNFMLTQPHSVSESPGKTVTISCTRSSGSIASNYVQWYQQRPGSSPTTVIYEDNQRPSGVPDRFSGSIDSSSNSASLTISGLKTEDEGDYYCQSYDRSNRVFGCGTKLTVLDKTHTCPPCPAPEFEGGPSVFLFPPKPKDTLMISRTPEVTCVVVDVSHEDPEVKFNWYVDGVEVHNAKTKPREEQYNSTYRVVSVLTVLHQDWLNGKEYKCKVSNKALPASIEKTISKAKGQPREPQVYTLPPCREEMTKNQVSLWCLVKGFYPSDIAVEWESNGQPENNYKTTPPVLDSDGSFFLYSKLTVDKSRWQQGNVFSCSVMHEALHNHYTQKSLSLSPGK
chain 2: B2 chain 2
chain 3: B2 chain 3
Consider B6, for which, in assay [8], the equilibrium dissociation constant (Kd) was 456 nM, the koff is 0.0829 s⁻¹ and the kon amounted to 182000 M⁻¹ s⁻¹.
